From patent publication US20220125891A1 (OSAKA UNIVERSITY, published 2022)
Positions count from the first letter of the chain named.

T1: Peptide 1 (CLDSGIGSLESQMSELWGVRGG), biotin-conjugated (human, biotin-conjugated)
T1 construct: also called human Regnase-1 peptide
T1 peptide: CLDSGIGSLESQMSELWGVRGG

T2: full-length human Regnase-1 with a FLAG tag on the N-terminal side and a biotin ligase BirA recognition … (human, UniProt Q5D1E8 1-599, biotinylated where required ; Biotinylated at the BirA recognition sequence where required. That sequence is not in the letters.)
T2 construct: Expressed in Expi293 cells, purified on FLAG M2 agarose and by gel filtration; also called full-length Regnase-1; human full-length Regnase-1
T2 sequence: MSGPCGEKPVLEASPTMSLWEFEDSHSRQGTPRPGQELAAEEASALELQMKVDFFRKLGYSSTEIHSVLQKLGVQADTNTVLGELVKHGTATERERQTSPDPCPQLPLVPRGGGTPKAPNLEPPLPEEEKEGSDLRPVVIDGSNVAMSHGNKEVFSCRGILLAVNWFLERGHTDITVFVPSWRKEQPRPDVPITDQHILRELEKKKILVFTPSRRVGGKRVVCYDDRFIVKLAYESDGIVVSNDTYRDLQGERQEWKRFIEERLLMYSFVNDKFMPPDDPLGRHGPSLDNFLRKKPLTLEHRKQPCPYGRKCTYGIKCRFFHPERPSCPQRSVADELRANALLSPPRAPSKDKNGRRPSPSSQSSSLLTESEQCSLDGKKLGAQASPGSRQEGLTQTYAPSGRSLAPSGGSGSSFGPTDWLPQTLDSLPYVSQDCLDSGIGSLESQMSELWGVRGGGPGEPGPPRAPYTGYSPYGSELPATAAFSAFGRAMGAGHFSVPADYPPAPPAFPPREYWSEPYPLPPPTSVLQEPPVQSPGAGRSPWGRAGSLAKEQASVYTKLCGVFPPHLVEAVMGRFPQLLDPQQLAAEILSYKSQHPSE

B1: REA0023 (antibody, V domains shown)
VH: QSLEESGGDLVKPGASLTLTCTDAGFSFSGVYWMHWVRQAPGKGLEWIACINAGSSGSTYYASWAKGRFTISKPSSTTVTLQMTSLTVADTATYFCARSFTLWGPGTLVTVSS
VL: AVVTQTPSSVSAAVGGTVTIKCQSSQSVGNNNYLAWFQQKPGQPPKLLIYSASTLASGVPSRFSGSGSGTQFTLTISGVQCDDAATYYCLGGYDGDGEAFYVFGGGTEVVVKG
notes: Rabbit antibody gene expressed in HEK293 cells, purified by Protein A; also called anti-Regnase-1 antibody; anti-non-phosphorylated Regnase-1 peptide antibody
B2: REA0027 (antibody, V domains shown)
VH: B1 VH with D23A, A24S, S27G, G30S, V31S, G57T, S58K, R98W, T101N
VL: B1 VL with Y33W
notes: as for B1

Columns and labels:
[1] = biological target: T1, Peptide 1 (CLDSGIGSLESQMSELWGVRGG), …; assay: flow cytometry of antigen-coated streptavidin beads
[2] = biological target: T2, full-length human Regnase-1 with a FLAG …; assay: as above

Binder | binding result [1] | binding result [2]
B1 | binds | binds
B2 | binds | binds
